# Experimental data from article PMC2074667.
# Legend:
# [1] = target: high-affinity cell-surface IFN-alpha receptor of human lung carcinoma cells (human (endogenous in PC9 and other lung carcinoma cell lines)); experiment: radioligand binding; several lung carcinoma cell lines (lines not named) in suspension, room temperature, 2 h, 0.1-4 nM [125I]IFN-a; non-specific binding measured with 100-fold excess of unlabelled IFN-a; Scatchard analysis
# [2] = target: high-affinity cell-surface IFN-alpha receptor of human lung carcinoma cells (human (endogenous in PC9 and other lung carcinoma cell lines)); experiment: radioligand binding; PC9 cells in suspension (200 ul of 5 x 10^6 cells/ml) incubated at room temperature for 2 h with 0.1-4 nM [125I]IFN-a; non-specific binding measured with 100-fold excess of unlabelled IFN-a; Scatchard analysis
substance,measurement,setting,value
"Pure recombinant human IFN-alpha, labelled with 125I (from UniProt P01563 24-188) (ligand)",Kd,[1],0.02 to 0.1 nM
same,Kd,[2],0.042 nM
